# Substitutions are numbered along the chain they refer to.
# T1: Human Id1: Histidine (human, UniProt P41134 1-155, limits assumed)
# T1 construct: Fusion protein made in E. coli from vector pGW07; also called h-Id1: his; not shown: His tag
# T1 sequence (looked up): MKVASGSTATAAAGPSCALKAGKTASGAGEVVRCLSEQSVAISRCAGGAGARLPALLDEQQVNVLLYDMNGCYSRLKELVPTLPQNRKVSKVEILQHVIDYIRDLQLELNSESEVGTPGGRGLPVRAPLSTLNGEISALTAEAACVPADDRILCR
# T2: Human Id2: Histidine (human, UniProt Q02363 1-134, limits assumed)
# T2 construct: Fusion protein made in E. coli from vector pGW07; also called h-Id2: His; not shown: His tag
# T2 sequence (looked up): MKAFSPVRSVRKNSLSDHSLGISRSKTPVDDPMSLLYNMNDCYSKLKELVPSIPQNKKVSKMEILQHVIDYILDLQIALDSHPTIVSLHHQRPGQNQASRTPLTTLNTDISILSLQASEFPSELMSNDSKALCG
# T3: Mouse Id1: Histidine (mouse, UniProt P20067-2 1-148, limits assumed)
# T3 construct: Fusion protein made in E. coli from vector pGW07; also called m-Id1-His; not shown: His tag
# T3 sequence (looked up): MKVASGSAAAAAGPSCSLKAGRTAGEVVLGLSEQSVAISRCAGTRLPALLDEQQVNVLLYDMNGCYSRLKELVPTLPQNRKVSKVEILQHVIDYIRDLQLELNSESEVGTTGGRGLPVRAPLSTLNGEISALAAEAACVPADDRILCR
# T4: Mouse Id2: Histidine (mouse, UniProt P41136 1-134, limits assumed)
# T4 construct: Fusion protein made in E. coli from vector pGW07; also called m-Id2: His; not shown: His tag
# T4 sequence (looked up): T2 sequence (looked up) with S60T, A131V
# T5: Mouse Id3: Histidine (mouse, UniProt P41133 1-119)
# T5 construct: Fusion protein made in E. coli from vector pGW07; also called m-Id3: His; Mouse Id3 (coated wells); not shown: His tag
# T5 sequence: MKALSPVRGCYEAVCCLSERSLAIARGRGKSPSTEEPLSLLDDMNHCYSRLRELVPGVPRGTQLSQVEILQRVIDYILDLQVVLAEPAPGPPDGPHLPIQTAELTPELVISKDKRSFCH
# T6: Human Id3: Histidine (human, UniProt Q02535 1-119 at identity 1.00))
# T6 construct: Fusion protein made in E. coli from vector pGW07; also called h-Id3: His; Human Id3 (coated wells); not shown: His tag
# T6 chain: T5 sequence with S31G, S33A, T34A, T105A, K112N
# B1: rabbit monoclonal anti-human Id3, clone #BCH-4/#3-3 (antibody, V domains shown)
# VH: QSVEESGGRLVTPGTPLTLTCTVSGIDLSSYAMSWVRQAPGKGLEWIGVIFPSNNVYYASWAKGRFTISKTSTTVDLKITSPTTEDTATYFCASMGAFDSWGPGTLVTVSS
# VL: QVLTQTPSPVSAAVGGTVTINCQASQSIYNDNDLAWFQQKPGQPPKLLIYDASTLTSGVPSRFKGSGSGTQFTLTISDLDCDDAATYYCAARYSGNIYGFGGGTEVVVK
# notes: Rabbit IgG from a rabbit hybridoma; also called h Id3 MoAb 3-3
# B2: rabbit monoclonal anti-mouse/human Id3, clone #BCH-4/#16-1 (antibody, V domains shown)
# VH: QSVEESGGRLVTPGTPLTLTCTASGFSLSSYYIHWVRQAPGKALEWIGYISDGGTTYYASWAKGRFTISKTSSTTVDLKMTSLTTEDTATYFCARQGFNIWGPGTLVTVSL
# VL: AVLTQTPSPVSAAVGGTVTISCQSSQSVYNNNWLSWFQQKSGQPPKLLIYETSKLESGVPSRFKGSGSGTQFTLTIIDVQCDDAATYYCLGGYWTTSDNNIFGGGTEVVVK
# notes: Rabbit IgG from a rabbit hybridoma; also called m/h Id3 MoAb 16-1
# B3: rabbit monoclonal anti-mouse/human Id3, clone #BCH-4/#17-3 (antibody, V domains shown)
# VH: B2 VH with S30N, Y31V, A43G, G54D, T56A, Y57R, S60T, D77N
# VL: B2 VL with T19S, Y29W, S41P, I77S, I101V
# notes: Rabbit IgG from a rabbit hybridoma; also called m/h Id3 MoAb 17-3; BCH-3/#17-3
# B4: rabbit monoclonal anti-mouse/human Id3, clone #BCH-4/#6-1 (antibody, V domains shown)
# VH: B2 VH with S30N, Y31V, A43G, G54D, T56A, Y57R, S60T, D77N
# VL: B2 VL with T19S, Y29W, S41P, I77S, I101V
# notes: Rabbit IgG from a rabbit hybridoma; also called m/h Id3 MoAb 6-1
# B5: rabbit monoclonal anti-mouse/human Id3, clone #BCH-4/#42-1 (antibody, V domains shown)
# VH: B2 VH
# VL: B2 VL with T95S
# notes: Rabbit IgG from a rabbit hybridoma; also called m/h Id3 MoAb 42-1
# Molecular target: T1, Human Id1: Histidine
# Test: ELISA, Ab 0.000 µg/ml (blank)
# Protocol: (§1) The rabbit monoclonal anti-human Id3 (clone #3-3) and the rabbit monoclonal anti-mouse/human Id3 (clones #6-1, 16-1, 17-3, and 42-1) produced in Example 6 were tested reactivity against the following antigens: mouse Id1:His, human Id1:His, mouse Id2:His, human Id2:His, mouse Id3:His, human Id3:His, mouse Id4:His, human Id4:His and GST.
# (§2) 1. Microtiter wells (prepared in accordance with Example 6) were coated (0.1 μg/well) with mouse Id1:His, human Id1:His, human Id2:His, human Id3:His, and 1.0 μg/well with GST. [0155] 2. Antibody Diluent: 0.25% (w/v) BSA in 0.015M KPO₄ Buffer, 0.85% (w/v) NaCl, 0.1% (w/v) NaN₃, pH=7.40 [0156] 3. Rabbit monoclonal anti-human Id3 (clone #3-3) prepared in Example 7 was diluted to […] with the antibody diluent. […] 4. Rabbit monoclonal anti-mouse/human Id3 (clones #6-1, 16-1, 17-3, 42-1) prepared in Example 7 was diluted to 0.005, 0.010, 0.025, 0.05, 0.10, 0.25, and 0.50 μg/ml with the antibody diluent. […] 5. Conjugate Diluent: 50% (v/v) which consists of an aqueous solution containing Fetal Bovine Serum in 0.05 M Tris, 1% (v/v) Proclin-300, pH 7.6. [0159] 6. Conjugate: Goat anti-rabbit IgG (H+L)-HRP conjugate. [0160] 7. TMB reagent. […] 8. Stop solution (1 N HCI). Method
# (§3) 1. Dispense 100 μL of antibody diluent, diluted rabbit monoclonal human Id3, and mouse/human Id3 hybridoma supernatants into appropriate wells. […] 2. Incubate at room temperature with mechanical shaking at 750 rpm for 90 minutes. [0165] 3. Remove the incubation mixture by flicking plate content into an appropriate waste container followed by rinsing the wells 5 times with distilled water. [0166] 4. Strike the wells sharply onto absorbent paper or paper towels to remove all residual water droplets. [0167] 5. Dispense 100 μL of 1:50,000 Goat Anti-Rabbit IgG-HRP Conjugate Reagent into each well. Gently mix for 5 seconds. [0168] 6. Incubate at room temperature with mechanical shaking at 750 rpm for 90 minutes. [0169] 7. Repeat procedures 3 and 4. [0170] 8. Dispense 100 μL of TMB Reagent into each well. Gently mix for 5 seconds. [0171] 9. Incubate at room temperature with mechanical shaking at 750 rpm for 20 minutes. […] 10.
row,Binder,A450 [A450]
1,B1,0.046
2,B2,0.043
3,B3,0.045
4,B4,0.045
5,B5,0.043

# Molecular target: T2, Human Id2: Histidine
# Test: ELISA, Ab 0.100 µg/ml
# Protocol: as §1, §2, §3
row,Binder,A450 [A450]
1,B1,0.048
2,B2,0.048
3,B3,0.048
4,B4,0.049
5,B5,0.046

# Molecular target: T3, Mouse Id1: Histidine
# Test: ELISA, Ab 0.100 µg/ml
# Protocol: as §1, §2, §3
row,Binder,A450 [A450]
1,B1,0.047
2,B2,0.047
3,B3,0.051
4,B4,0.049
5,B5,0.049

# Molecular target: T4, Mouse Id2: Histidine
# Test: ELISA, Ab 0.250 µg/ml
# Protocol: as §1, §2, §3
row,Binder,A450 [A450]
1,B1,0.051
2,B2,0.063
3,B3,0.064
4,B4,0.062
5,B5,0.063

# Molecular target: T2, Human Id2: Histidine
# Test: ELISA, Ab 0.250 µg/ml
# Protocol: as §1, §2, §3
row,Binder,A450 [A450]
1,B1,0.054
2,B2,0.052
3,B3,0.054
4,B4,0.056
5,B5,0.051

# Molecular target: T7, glutathione S-transferase (GST) (UniProt P08515 1-218 = GST)
# T7 construct: also called carrier protein GST
# T7 sequence (P08515 whole entry): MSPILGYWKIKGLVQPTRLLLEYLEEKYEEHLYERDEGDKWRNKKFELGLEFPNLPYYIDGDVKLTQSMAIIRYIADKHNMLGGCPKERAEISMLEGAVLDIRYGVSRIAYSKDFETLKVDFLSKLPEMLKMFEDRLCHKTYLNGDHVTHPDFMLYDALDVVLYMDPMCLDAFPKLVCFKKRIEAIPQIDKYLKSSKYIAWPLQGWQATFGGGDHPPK
# Test: ELISA, Ab 0.250 µg/ml
# Protocol: as §1, §2, §3
row,Binder,A450 [A450]
1,B1,0.048
2,B2,0.048
3,B3,0.052
4,B4,0.051
5,B5,0.051

# Molecular target: T5, Mouse Id3: Histidine
# Test: ELISA, Ab 0.250 µg/ml
# Protocol: as §1, §2, §3
row,Binder,A450 [A450]
1,B2,3.21
2,B3,3.62
3,B4,3.42
4,B5,3.55

# Molecular target: T1, Human Id1: Histidine
# Test: ELISA, Ab 0.250 µg/ml
# Protocol: as §1, §2, §3
row,Binder,A450 [A450]
1,B1,0.047
2,B2,0.045
3,B3,0.045
4,B4,0.051
5,B5,0.044

# Molecular target: T6, Human Id3: Histidine
# Test: ELISA, Ab 0.250 µg/ml
# Protocol: as §1, §2, §3
row,Binder,A450 [A450]
1,B2,2.83
2,B3,3.32
3,B4,3.02
4,B5,3.31

# Molecular target: T3, Mouse Id1: Histidine
# Test: ELISA, Ab 0.250 µg/ml
# Protocol: as §1, §2, §3
row,Binder,A450 [A450]
1,B1,0.048
2,B2,0.047
3,B3,0.052
4,B4,0.048
5,B5,0.054

# From patent US20070178531A1 (BIOCHECK, published 2007)
